Source: US10617701B2, “Nutritional compositions containing phosphatidylethanolamine, sphingomyelin and docosahexaenoic acid” (Mead Johnson Nutrition Company, priority 2015, dated 2020)

Tested on: embryonic mouse cortical cells
Experiment: Functional neuronal maturation of cortical networks on microelectrode arrays (MEA recording, chronic treatment)
Type: cell-based
Conditions: cortical networks on MEAs
Description: Cortical cells were grown on multi-well microelectrode arrays (MEAs) and treated with 10 different experimental series, including different combinations of test agents (PE, SM, LF and DHA) and the activity was recoded at 4 different time points during the 4 weeks of functional neuronal maturation Cells growing on glass slides were treated in parallel for morphological and cell population analysis. These experiments aimed to elucidate whether the test compounds affect the functional and morphological neuronal maturation […] (see FIG. 1). […]
Primary cell culture for MEA recordings: In brief, frontal cortex tissue was harvested from embryonic day […] NMRI mice. […] Cultures on MEAs were incubated at 37° C. in a 10% CO2 atmosphere until ready for use, which usually is four weeks to three months after seeding. […]
Multichannel Recording: After establishing a stable activity pattern after 4 weeks, the neuronal networks on MEA chips are employed for substance testing. […] The signals routinely recorded by these neurochips are located in a range of 15-1800 […] . […]

B1: lactoferrin (protein, UniProt P24627 20-708, looked up)
Lactotransferrin: APRKNVRWCTISQPEWFKCRRWQWRMKKLGAPSITCVRRAFALECIRAIAEKKADAVTLDGGMVFEAGRDPYKLRPVAAEIYGTKESPQTHYYAVAVVKKGSNFQLDQLQGRKSCHTGLGRSAGWIIPMGILRPYLSWTESLEPLQGAVAKFFSASCVPCIDRQAYPNLCQLCKGEGENQCACSSREPYFGYSGAFKCLQDGAGDVAFVKETTVFENLPEKADRDQYELLCLNNSRAPVDAFKECHLAQVPSHAVVARSVDGKEDLIWKLLSKAQEKFGKNKSRSFQLFGSPPGQRDLLFKDSALGFLRIPSKVDSALYLGSRYLTTLKNLRETAEEVKARYTRVVWCAVGPEEQKKCQQWSQQSGQNVTCATASTTDDCIVLVLKGEADALNLDGGYIYTAGKCGLVPVLAENRKSSKHSSLDCVLRPTEGYLAVAVVKKANEGLTWNSLKDKKSCHTAVDRTAGWNIPMGLIVNQTGSCAFDEFFSQSCAPGADPKSRLCALCAGDDQGLDKCVPNSKEKYYGYTGAFRCLAEDVGDVAFVKNDTVWENTNGESTADWAKNLNREDFRLLCLDGTRKPVTEAQSCHLAVAPNHAVVSRSDRAAHVKQVLLHQQALFGKNGKNCPDKFCLFKSETKNLLFNDNTECLAKLGGRPTYEEYLGTEYVTAIANLKKCSTSPLLEACAFLTR
acute effect on neuronal network activity in vitro: acutely affect neuronal network activity
